Test results as given in US20190169308A1.

Molecular target: human/mouse 5T4 chimera aa173-420 (human; mouse) (UniProt Q13641)
Assay: flow cytometry, cells with human/mouse 5T4 chimera

Sequence of human/mouse 5T4 chimera aa173-420 (human; mouse) (Q13641 other isoform, or with tags, fused parts or gaps mutant limits assumed, form in doubt): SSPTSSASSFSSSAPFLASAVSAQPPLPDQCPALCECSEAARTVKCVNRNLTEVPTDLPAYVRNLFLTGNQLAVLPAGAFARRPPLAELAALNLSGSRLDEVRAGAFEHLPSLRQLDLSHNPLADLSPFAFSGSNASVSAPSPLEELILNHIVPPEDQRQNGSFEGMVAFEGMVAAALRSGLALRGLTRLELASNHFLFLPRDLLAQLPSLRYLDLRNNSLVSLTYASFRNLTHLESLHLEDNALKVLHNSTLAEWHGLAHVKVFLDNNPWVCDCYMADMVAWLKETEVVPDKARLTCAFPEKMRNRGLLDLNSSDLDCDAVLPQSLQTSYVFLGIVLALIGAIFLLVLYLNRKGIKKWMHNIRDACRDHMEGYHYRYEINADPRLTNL

| normalized % positive cells | Binder |
| --- | --- |
| -0.01 | 1212/1213 (antibody, V domains shown) VH: EVQLLESGGGLVQPGGSLRLSCAASGFTFSSYAMSWVRQAPGKGLEWVSYISSYGGYTSYADSVKGRFTISRDNSKNTLYLQMNSLRAEDTAVYYCARYHSGVLDYWGQGTLVTVSS VL: DIQMTQSPSSLSASVGDRVTITCRASQSISSYLNWYQQKPGKAPKLLIYAASSLQSGVPSRFSGSGSGTDFTLTISSLQPEDFATYYCQQYYYHYLLTFGQGTKLEIK |
| 0.3 | 1206/1207 (antibody, V domains shown) VH: EVQLLESGGGLVQPGGSLRLSCAASGFTFSGSSMSWVRQAPGKGLEWVSSIYYSGSGTYYADSVKGRFTISRDNSKNTLYLQMNSLRAEDTAVYYCARYGRNVHPYNLDYWGQGTLVTVSS VL: DIQMTQSPSSLSASVGDRVTITCRASQSISSYLNWYQQKPGKAPKLLIYAASSLQSGVPSRFSGSGSGTDFTLTISSLQPEDFATYYCQQGYYYLPTFGQGTKLEIK |
